This is an account of results in PMC4619679.

The series concerns the target Dnmt1 (N-His) (UniProt P13864). The experiment in a line: MST. The settings on record: EMSA: 20 mM Tris pH 7.6, 30 mM KCl, 5 mM EDTA, 1 mM DTT, 5 uM SAM, 20% glycerol, 26 C, MST: 10 mM Tris/Cl, 150 mM KCl, 0.75 mM MgCl2, 0.25 mM EGTA.
UniProt P13864, sequence (P13864 whole entry): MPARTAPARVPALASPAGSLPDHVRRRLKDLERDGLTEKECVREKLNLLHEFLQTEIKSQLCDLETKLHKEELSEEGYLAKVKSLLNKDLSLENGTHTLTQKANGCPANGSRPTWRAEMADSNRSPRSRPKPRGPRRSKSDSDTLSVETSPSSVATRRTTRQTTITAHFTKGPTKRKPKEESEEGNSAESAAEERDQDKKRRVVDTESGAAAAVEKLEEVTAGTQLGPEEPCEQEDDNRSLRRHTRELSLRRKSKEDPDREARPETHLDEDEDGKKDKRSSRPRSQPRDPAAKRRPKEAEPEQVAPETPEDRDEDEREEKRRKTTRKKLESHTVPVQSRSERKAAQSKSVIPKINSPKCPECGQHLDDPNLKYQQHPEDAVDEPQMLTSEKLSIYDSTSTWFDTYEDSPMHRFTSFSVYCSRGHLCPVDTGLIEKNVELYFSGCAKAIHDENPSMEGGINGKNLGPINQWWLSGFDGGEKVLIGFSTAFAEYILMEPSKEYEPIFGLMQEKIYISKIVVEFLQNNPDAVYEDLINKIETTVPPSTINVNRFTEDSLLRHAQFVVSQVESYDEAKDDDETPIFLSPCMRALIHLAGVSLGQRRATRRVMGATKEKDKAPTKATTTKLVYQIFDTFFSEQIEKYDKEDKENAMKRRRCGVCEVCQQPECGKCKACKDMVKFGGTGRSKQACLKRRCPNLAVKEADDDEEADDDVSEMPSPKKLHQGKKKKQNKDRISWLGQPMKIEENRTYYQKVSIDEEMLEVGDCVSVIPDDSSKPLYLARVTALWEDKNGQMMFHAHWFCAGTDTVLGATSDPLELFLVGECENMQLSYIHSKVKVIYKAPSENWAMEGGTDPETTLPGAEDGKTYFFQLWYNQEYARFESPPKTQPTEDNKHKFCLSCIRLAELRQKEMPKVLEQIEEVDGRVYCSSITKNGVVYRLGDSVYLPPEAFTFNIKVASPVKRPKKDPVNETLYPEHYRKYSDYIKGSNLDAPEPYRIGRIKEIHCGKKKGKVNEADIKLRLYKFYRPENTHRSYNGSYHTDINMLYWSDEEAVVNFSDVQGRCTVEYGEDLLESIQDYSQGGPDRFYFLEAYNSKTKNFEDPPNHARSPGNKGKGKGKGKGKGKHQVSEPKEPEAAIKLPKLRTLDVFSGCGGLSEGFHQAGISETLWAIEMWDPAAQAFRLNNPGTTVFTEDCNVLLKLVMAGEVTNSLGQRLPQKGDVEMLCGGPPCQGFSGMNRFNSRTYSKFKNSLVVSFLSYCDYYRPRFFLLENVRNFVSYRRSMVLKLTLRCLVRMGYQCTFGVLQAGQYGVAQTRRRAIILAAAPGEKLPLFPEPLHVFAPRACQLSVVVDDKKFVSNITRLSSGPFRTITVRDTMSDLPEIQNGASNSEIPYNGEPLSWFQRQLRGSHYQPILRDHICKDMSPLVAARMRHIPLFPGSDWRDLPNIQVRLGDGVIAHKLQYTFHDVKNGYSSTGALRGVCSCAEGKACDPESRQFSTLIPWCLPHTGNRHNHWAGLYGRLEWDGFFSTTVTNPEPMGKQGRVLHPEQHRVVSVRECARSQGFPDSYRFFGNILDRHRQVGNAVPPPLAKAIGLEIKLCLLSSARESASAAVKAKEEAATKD

Regarding “TGCGGAATCGTCTAACGCGTGGAATCGTCCGATTGAGGTCGCGATCTCGAATCACGGTGC (double strand) [AIR60 hemi-methylated 60 bp DNA]”, the binding signal (fold higher affinity with SAM) (160 uM SAM, 5-methyl-C at Z positions of the lower strand (C5, C12, C18, C20, C29, C33, C40, C42, C49; strand printed only up to TTAGAZG, so the CG in the last 8 nt is unknown)) stood at 2.
For the sequence “TGCGGAATCGTCTAACGCGTGGAATCGTCCGATTGAGGTCGCGATCTCGAATCACGGTGC (double strand) [AIR60 non-methylated 60 bp DNA]”, the K half was determined as 1500 nM.
